Assay results: US20110112279A1 (published 2011)

Legend:
[1] = target: T1, human STOP-1 short form (L94-K243) with C-terminal His tag, baculovirus expressed (UniProt Q96CG8 94-243); assay: competitive ELISA
[2] = target: T2, human STOP-1, full length, C-terminal 8xHis tag (h762HIP; M1-K243-His), expressed in CHO-psgb cells (UniProt Q96CG8 31-243); assay: competitive ELISA
[3] = target: T2, human STOP-1, full length, C-terminal …; assay: competitive ELISA; F/F: coated full length, competed full length
[4] = target: T1, human STOP-1 short form (L94-K243) with …; assay: competitive ELISA; S/S: coated short form, competed short form

T1 sequence (Q96CG8 94-243): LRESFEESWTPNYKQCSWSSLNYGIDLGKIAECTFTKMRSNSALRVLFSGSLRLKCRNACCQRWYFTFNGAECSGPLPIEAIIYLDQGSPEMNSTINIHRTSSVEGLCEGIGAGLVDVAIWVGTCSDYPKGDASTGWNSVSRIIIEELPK
T2 sequence (Q96CG8 other isoform, or with tags, fused parts or gaps): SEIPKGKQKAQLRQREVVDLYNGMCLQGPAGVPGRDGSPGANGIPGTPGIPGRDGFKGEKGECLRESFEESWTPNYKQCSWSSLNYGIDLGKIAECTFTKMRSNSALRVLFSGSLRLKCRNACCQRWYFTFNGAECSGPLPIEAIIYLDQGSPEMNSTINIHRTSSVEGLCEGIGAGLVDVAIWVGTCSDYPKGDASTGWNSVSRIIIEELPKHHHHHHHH

B1: S7 IgG (full-length human IgG1; LPG3-humankappaG6 and LPG4-humanHC-S7), expressed in CHO cells (antibody, V domains shown)
VH: EVQLVESGGGLVQPGGSLRLSCAASGFTISGSDIHWVRQAPGKGLEWVGRISPYGGNTNYADSVKGRFTISADTSKNTAYLQMNSLRAEDTAVYYCARVGGLKLLFDYWGQGTLVTVSS
VL: DIQMTQSPSSLSASVGDRVTITCRASQDVSTAVAWYQQKPGKAPKLLIYSASFLYSGVPSRFSGSGSGTDFTLTISSLQPEDFATYYCQQSYTTPPTFGQGTKVEIKR
Kd [1]: 7.3 nM
Kd [2]: 41 nM
Kd [3]: 41 nM
Kd [4]: 7.3 nM

B2: S4 IgG (full-length human IgG1; LPG3-humankappaG6 and LPG4-humanHC-S4), expressed in CHO cells (antibody)
light: DIQMTQSPSSLSASVGDRVTITCRASQDVSTAVAWYQQKPGKAPKLLIYSASFLYSGVPSRFSGSGSGTDFTLTISSLQPEDFATYYCQQSYTTPPTFGQGTKVEIKRTVAAPSVFIFPPSDEQLKSGTASVVCLLNNFYPREAKVQWKVDNALQSGNSQESVTEQDSKDSTYSLSSTLTLSKADYEKHKVYACEVTHQGLSSPVTKSFNRGEC
heavy: not shown
Kd [1]: 0.5 nM
Kd [2]: 3 nM
Kd [3]: 3.1 nM
Kd [4]: 0.5 nM

B3: S4 Fab (antibody)
chain 1: MKKNIAFLLASMFVFSIATNAYADIQMTQSPSSLSASVGDRVTITCRASQDVSTAVAWYQQKPGKAPKLLIYSASFLYSGVPSRFSGSGSGTDFTLTISSLQPEDFATYYCQQSYTTPPTFGQGTKVEIKRTVAAPSVFIFPPSDEQLKSGTASVVCLLNNFYPREAKVQWKVDNALQSGNSQESVTEQDSKDSTYSLSSTLTLSKADYEKHKVYACEVTHQGLSSPVTKSFNRGECGASSGMADPNRFRGKDLA
chain 2: MKKNIAFLLASMFVFSIATNAYAEVQLVESGGGLVQPGGSLRLSCAASGFTISGSWIHWVRQAPGKGLEWVAWIAPYSGATDYADSVKGRFTISADTSKNTAYLQMNSLRAEDTAVYYCAREGGLYWVFDYWGQGTLVTVSSASTKGPSVFPLAPSSKSTSGGTAALGCLVKDYFPEPVTVSWNSGALTSGVHTFPAVLQSSGLYSLSSVVTVPSSSLGTQTYICNVNHKPSNTKVDKKVEPKSCDKTHL
Kd [1]: 1.9 nM
Kd [2]: 13 nM
Kd [3]: 13.4 nM
